Reference: article PMC10014064

Legend:
[1] = biological target: amyloid precursor protein (APP), mouse (mouse (endogenous in C57BL/6 hippocampus))
[2] = biological target: amyloid precursor protein (APP), mouse (mouse (endogenous in C57BL/6 hippocampus)); remark: listed apart in the source

GluN2B subunit of the NMDA receptor, mouse (from UniProt Q01097 27-1482)
reduction in NMDAR EPSCs in CA1 pyramidal neurons of infant mice with the APP C-terminal antibody Y188 (2.5 nM) in the recording pipette, compared with boiled Y188 [1]: 21.1%
effect of ifenprodil (5 μM, GluN2B antagonist) on NMDAR EPSCs in infant neurons previously incubated with the Y188 antibody against the APP C-terminal, versus the control condition [2]: 19.8%
